Data published in publication PMC8888643.

Legend:
[1] = molecular target: SARS-CoV-2 main protease with the mutations E290A and R298A (MPro^M) (SARS-CoV-2); test: enzyme kinetics (calculated from rate constants); dimer to monomers (K1); MPro^M, calculated from the slope of rate against [Mo]^2 (Eq. 3) and from k3/Ks found with GC376 (Eq. 6); buffer B, 28 °C
[2] = molecular target: SARS-CoV-2 main protease with the mutations E290A and R298A (MPro^M) (SARS-CoV-2); test: not stated; 10 µM MPro^M with a 10-fold molar excess of GC376 (100 µM); told with the CD spectra
[3] = molecular target: SARS-CoV-2 main protease with the mutations E290A and R298A (MPro^M) (SARS-CoV-2); test: AUC; sedimentation velocity, 50,000 rpm, 25 °C, buffer B with 0.1% DMSO; MPro^M at 6-7 µM with GC376 at 1-50 µM
[4] = molecular target: SARS-CoV-2 main protease with the mutations E290A and R298A (MPro^M) (SARS-CoV-2); test: AUC; sedimentation velocity, 50,000 rpm, 25 °C, buffer A; MPro^M at 18-90 µM, without inhibitor

Question: How did the Kd [1] turn out when “SARS-CoV-2 main protease with the mutations E290A and R298A (MPro^M) (enzyme)” was run?
Answer: 6.6 mM

Question: And the percent dimeric with 10-fold molar excess of GC376 [2]?
Answer: 90%

Question: What about the free monomer concentration [M] at [Mo] 10 µM and GC376 10 µM [3] of the same substance?
Answer: 5e-06 M

Question: And the stoichiometry N [3]?
Answer: 2

Question: And the Kd [4]?
Answer: > 0.09 mM
